Measurements taken from US20230174642A1, “AFFINITY-MATURATED ANTI-ASIC1a ANTIBODIES” (SHANGHAITECH UNIVERSITY, priority 2019, published 2023).

Tests used:
[1] = biological target: T1, rat ASIC1a (rASIC1a-eYFP) (Rattus norvegicus, UniProt P55926); test: FACS-based binding assay, transiently transfected CHO-K1 cells (species selectivity); conditions: double positive population
T1 construct: expressed in transfected cells; host or cells: CHO-K1 (transient)
T1 sequence (P55926 1-526): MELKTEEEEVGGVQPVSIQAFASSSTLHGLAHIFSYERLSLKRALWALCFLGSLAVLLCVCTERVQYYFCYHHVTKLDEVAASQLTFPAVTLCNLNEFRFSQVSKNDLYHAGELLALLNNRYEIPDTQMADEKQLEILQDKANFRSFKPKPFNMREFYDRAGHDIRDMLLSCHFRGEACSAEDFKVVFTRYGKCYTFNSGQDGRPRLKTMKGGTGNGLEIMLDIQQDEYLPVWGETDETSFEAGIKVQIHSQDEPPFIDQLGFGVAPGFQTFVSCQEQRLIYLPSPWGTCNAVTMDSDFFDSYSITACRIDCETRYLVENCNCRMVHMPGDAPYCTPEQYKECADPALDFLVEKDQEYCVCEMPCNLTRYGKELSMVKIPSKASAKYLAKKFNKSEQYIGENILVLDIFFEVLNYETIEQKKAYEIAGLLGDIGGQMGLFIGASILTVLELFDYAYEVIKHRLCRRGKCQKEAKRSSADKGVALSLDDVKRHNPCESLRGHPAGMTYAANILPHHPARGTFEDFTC
Protocol: (§1) To investigate the species selectivity of ASC06-IgG1 affinity-matured antibodies, plasmids encoding fusion proteins of eYFP with […] homologs of ASIC1a were constructed. These plasmids included those encoding human ASIC1a (hASIC1a-eYFP), mouse ASIC1a (mASIC1a-eYFP), and rat ASIC1a (rASIC1a-eYFP). CHO-K1 cells were transiently transfected with the ASIC1a-eYFP plasmids, and a fluorescence activated cell sorting (FACS)-based binding assay was carried out to determine binding to the homologs or isoforms of ASIC1a expressed on the cell surface. An isotype control was used as a negative control for binding (NC). ASC06-IgG1 was used as a positive control. Summarily, the CHO-K1 cells expressing the ASIC1a-eYFP (green) homologs were stained with the indicated antibody (red) and subjected to FACS.

[2] = biological target: T2, mouse ASIC1a (mASIC1a-eYFP) (Mus musculus, UniProt Q6NXK8); test: as above; conditions: double positive population
T2 construct: expressed in transfected cells; host or cells: CHO-K1 (transient)
T2 sequence (Q6NXK8 1-526): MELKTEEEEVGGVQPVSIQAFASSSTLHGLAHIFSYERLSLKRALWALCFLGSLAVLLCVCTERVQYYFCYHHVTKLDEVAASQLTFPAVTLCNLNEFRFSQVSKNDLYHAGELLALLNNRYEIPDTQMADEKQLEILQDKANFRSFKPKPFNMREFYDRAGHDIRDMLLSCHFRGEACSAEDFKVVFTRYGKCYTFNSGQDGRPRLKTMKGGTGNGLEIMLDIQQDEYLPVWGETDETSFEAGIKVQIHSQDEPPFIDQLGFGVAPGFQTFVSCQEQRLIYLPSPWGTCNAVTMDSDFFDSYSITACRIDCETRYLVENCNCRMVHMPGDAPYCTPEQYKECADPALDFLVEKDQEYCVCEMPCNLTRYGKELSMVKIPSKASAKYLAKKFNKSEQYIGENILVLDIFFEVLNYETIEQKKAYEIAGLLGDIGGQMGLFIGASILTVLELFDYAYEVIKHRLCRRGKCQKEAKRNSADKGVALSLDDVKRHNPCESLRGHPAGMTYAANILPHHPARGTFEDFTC
Protocol: as §1

ASIC1a = biological target: T3, ASIC1a (Homo sapiens, UniProt P78348); test: Patch clamp whole-cell recording of acid-induced hASIC1a currents; type: cell-based
T3 construct: expressed in transfected cells
T3 sequence (P78348 1-528): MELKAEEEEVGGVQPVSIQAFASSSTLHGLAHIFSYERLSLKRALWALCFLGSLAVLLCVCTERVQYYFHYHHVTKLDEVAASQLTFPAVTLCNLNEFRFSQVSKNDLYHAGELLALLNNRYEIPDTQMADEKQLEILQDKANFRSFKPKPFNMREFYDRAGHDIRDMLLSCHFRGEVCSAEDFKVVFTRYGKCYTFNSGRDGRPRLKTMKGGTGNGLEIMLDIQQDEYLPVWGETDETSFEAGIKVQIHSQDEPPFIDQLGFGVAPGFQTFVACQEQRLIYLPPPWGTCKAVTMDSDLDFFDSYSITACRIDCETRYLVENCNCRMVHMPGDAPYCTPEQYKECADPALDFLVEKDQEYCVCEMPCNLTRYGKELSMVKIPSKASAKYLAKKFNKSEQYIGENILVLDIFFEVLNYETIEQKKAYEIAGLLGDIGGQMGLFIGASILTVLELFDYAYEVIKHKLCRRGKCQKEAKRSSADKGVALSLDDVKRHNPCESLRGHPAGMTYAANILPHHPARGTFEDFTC
Protocol: FIGS. 4A-4E show the effect of affinity-matured ASC06-IgG1 derivative antibodies on the hASIC1a currents. Shown are the representative current traces recorded from single CHO-K1 cells stably expressing hASIC1a in the absence or presence of 100 nM ASC06-IgG1 (FIG. 4A) or affinity-matured ASC06-IgG1 versions ASC06-01-IgG1 (FIG. 4B), ASC06-02-IgG1 (FIG. 4C), ASC06-03-IgG1 (FIG. 4D), or ASC06-04-IgG1 (FIG. 4E). Amiloride (30 μM) was used as a positive control. “Wash” represents the recovery of the current after the treatment of 100 nM indicated antibody followed by 15 min infusion of washing solution.
Whether the affinity-matured ASC06-IgG1 derivative antibodies have an effect on the acid-induced, hASIC1a-mediated electrical current in cells was tested. An hASIC1a overexpressing stable cell line was used as a model for these studies. Extracellular pH was decreased from pH 7.4 to pH 6.0 and the amplitudes of the hASIC1a-mediated inward currents were recorded in the whole-cell recording mode in the presence of the affinity-matured ASC06-IgG1 derivative antibodies (FIGS. 4A-4E). The ASIC1a inhibitor amiloride (30 μM) was used as a positive control for the inhibition of ASIC1a currents.

B1: ASC06-04-IgG1: affinity-matured ASC06 derivative, VH-CDR3 DSFYGRAKGV (SEQ ID NO: 17) (antibody, V domains shown)
VH: QVQLQQSGGGLVQPGGSLRLSCAASGFTFSSYAMSWVRQAPGKGLEWVSAISGSGGSTYYADSVKGRFTISRDNSKNTLYLQMNSLRAEDTAVYYCAKDSFYGRAKGVWGQGTLVTVSS
VL: QSALTQPASVSGSPGQSITISCTGTSSDVGAYNYVSWYQQQPGKAPKLMIYGVSNRPSGVSNRFSGSKSGNAASLTISGLQAEDEADYYCSSYTSSSTYVFGTGTKLTVLG
B1 was tested, and the “binding to cells expressing rASIC1a-eYFP” value [1] was “bound”, the “binding to cells expressing mASIC1a-eYFP” value [2] was “bound” and the “blockage of ASIC1a-mediated currents compared to ASC06-IgG1” value (ASIC1a; 100 nM antibody) was “stronger blockage”. For the same molecule, the “Percent inhibition of the acid induced-hASIC1a currents” value (ASIC1a; 300 nM antibody, pH 7.4 to pH 6.0, mean ± standard deviation) was 96.8 ± 3.4%.
